According to the DeepSol protein solubility set:

Experiment: soluble on expression in E. coli; label from the status in PepcDB or PDB records

Soluble on expression in E. coli, not soluble:
MGSDKIHHHHHHMKRIRNISVVGMGAVGCAYGRKLYKLNPNNFKIIADDKRKEKLTKNGFLINGEKYDFKCVSPNENLGKDDLIIIAVKYNQLEEAIEEIRNYVGENTIILSFLNGIKSEEEIGKVYGMDKILYSYCVLESTRKGSEVYVSDGYKIVFGQKESDNKYEKIKAVRELFDDAEIDYEIPVDIIHSMWSKFMFNVGINPVSAILKANYGMLQKNKYARETMVSAMMEVINISQKASVNLKIEEINHWLAVLDECELHGKTSMCQDILMGRKTEIDMLSGEVCALGEKYGVDTPVNRTLFNMVKSIE
MGSDKIHHHHHHMKRISQQELESYLWGAAVLLRGLIDAGDYKQFIFPLLFYKRVSDVWDEEYQAALANSGGDLSYAQFAENHRFQIPAGAHWNDVRQTPKNVGAAIQKAMRAIESANPDLLDGIFGDAPWTNRERLPDETLKNLIEHFSTQTLSVANVPEDELGNAYEYLIKKFADDSGHTAAEFYTNRTVVHLMTQLLAPQAGESIYDPTCGTGGMLISALDEVKRAGGEYRTLKLYGQERNLITSSIARMNLFLHGVEDFEIIRGDTLAEPKHIEGDRLRQFDVILANPPYSIKQWNREAWSSDKWGRNSLGTPPQGRADYAFQQHILTSLTAKGRCAVLWPHGVLFRNEEQSMRAKMVEQDWVEAVIGLGPNLFYNSPMESCIVICNRKKAAARKGKVIFIDAVNEVARERAQSFLKPEHQQRILTAYKTFADVPGFAKVATLAEIGANAGNLSIPLYVKRIAAAIATDSNDDAVSLRSAWDQWQADGRAFWQQMDALVETLDGLVAQEAADA
MGSDKIHHHHHHMKRLRVTLAQLNPTLGDFEGNLKKAIEALRVAEDRGSDLLVFPELFLPGYPPEDLMLRLSFLRENRKYLQKFAQHTRNLGVTVLMGFIDSDEDAYNAAAVVKDGEILGVYRKISLPNYGVFDERRYFKPGEELLVVKIGNIKVGVTICEDIWNPVEPSASLSLGEGVHLIANLSASPYHVGKPVLRKDYLSMKAYDYHVAMAYCNMVGGQDELVFDGGSMVVDASGEVINYGKLFEEEIITVDLDLDENLRVSLVDPRRRYMKTQNYPVKTVEAGNLREKSGHFEPVVNPLPVREEEMFRALITGLRDYVRKNGFEKVVIGLSGGMDSSLVAVIATEALGKENVKGVLMPSMYTSKESIEDAQTLAKNLGIETFIIPITDVFHSYLETLKGVFAGREPDITEENLQARIRGNYLMALSNKFGWLVLTTGNKSEMATGYATLYGDMAGGFAVIKDVYKTDVYRIGRWYNSWRGKEIIPENIFVKPPTAELRPGQTDQEKLPPYEVLDEILRLYIEEGLDPEEIASKGFDRKTVLDVTEMIRKNEYKRKQAAIGVKISTRAFGKDWRMPITNRFKEPL
MGSDKIHHHHHHMKRLSPEVFKVPIDRIRNGYYSDIYFINYVKVLKRDSRHPRVYYQFFPRKDAVICGIDEALAILKFCTGYYKDEEKARELFEEILKLDKEMQAASVEMDVQKILELTQKKWDLRLKLNDLWVDKWDEIEVHALYDGEEAKEGEPIMTIEGDPTYFGYLETVLLGVIARATSTATAVKKVVKAARGKPVLFFSARFDHYWVQATDGYAALKAGAFGVSTDANADYWGVKSMGTMPHALIACYDGKTEDAAIAFDRHMEEDVNRIVLVDWDNDVIGTTFRVIEKFYEYVMKKPFKLGVTDPSPIIGPGKNKIWGVRFDTSGNLRDKSVVPKDESSFGVCPELVWRARQEFDKVGLRDLKIVVSGGFDEKKIDLFERLGVPADAYGVGSRLLREKVDITADIVEVNGRHCAKVGRYKIENPRLKKVGKRYWEEE
MGSDKIHHHHHHMKRMSCLLLGGLLLSGCGKEEAPPEPIRPVVFVEAQPESMQDFGRFAGNIQARYQSVLGFRVAGRIARRNVDVGSEVKKGDLLATLDPTDQQNNVRGRQGDLANVQAQWINAQANARRQQELFDRGVGAQAQLDVALTDLKTASSSLEQAKAAEQQARDQLSYSELHSDHDAVVTEWKVEAGQVVTAGQEVVTLARPDIKEAVIDLPDALADQLPRDVVFTVASQLNPDINTTATIREIEPQADRTTRTRRTRLSLAETPVAFRLGTAISVTLSSTITARMRLPINALQEVDGKRQIWIVDPQSQTVNPRAVNITSRDNDSFVLADGVKAGEKVVSAGVNSLKPGQKVKVDEESPR
MGSDKIHHHHHHMKSCLYFTFIVLFLTACSTKNLTSLHRENLEQKNENQHYVKLEYEQNVNILPQFAYDINFDAKRYKKYFFNPWHDSFKNYKGQNIFWSFPLYLNSKNTYYFFNKQIIPLSWFKNAINNANIQEFGKLNQKALIIQNTIIKNLPTQRAILKNPFFENEGIPFDYASDGILNTGAPVLISHFSKDKRYAFVLGEAGFGFVESKNLEFFSNDRAKIYENLNFITPLKEKFAIYSEDGKFLFESRIGAIYPYYKEDKNYFYGKIGSKKYKISKKDVSKFPLQFNDKNLKNQLSQVLNLPYGWGGYNFERDCSLLTRDIFSAFGLYLPRNSAAQKNSFNHFDISTLSNSQKKDFLNRFGKAYLSLLYLPGHIMLYAGQITDNNIAIHNIWGLRKDATQRLLISSSVITSLEIGKNEILEDNLLLSRLKEISFINLNEQEKEQIKSYLENIQNK
MGSDKIHHHHHHMKSPCILLIIVCTLSLTGCASTKQADSDSSLGKAQQTLDSLYQHYSAKDSYLLRENYPFNEQYKVTYLASENQTNMPNQFSYLWPYSGTFSAVNSLLEATHDKKYQQLLEKQVLPGLEEYFDTERTPIAYSSYIRTAPTSDRFYDDNIWVGIDFIDIYQITKEKKYLDKAQLIWNFIESGTDSLLGDGIYWCEQKKESKNTCSNAPGSVFALKLFKATNDSLYFKRGKELYKWTQKNLQDSTDYLYFDNIRLDGKIGKAKFAYNSGQMMQSAALLYQLTKNPDYLKDAQSIAKECYNYFFTDFTTDTGESLKMLKQGNIWFTAVMLRGFIELYQLDQNKTFIDAFNQCLSYAWDNARDENGLFSTDLTGNNNNEKKWLLTQAAMVEMYSRLATIQ
MGSDKIHHHHHHMKTFHNEEIYIKTDNFSDSIFKENTMFFDIETTGFSPVKAIVYMIGCARRIKNRIVIDQYFAESVDDEAAVIEAFAGSLSGCSTIISFNGVGFDIPFLKNKYKKYKQEDPFCNVQILDIFKELSPIKPLLCLENYKQKSIEAFLGIDREDKYSGGELINVYYEYLAQKDDEKLSLLLTHNYEDVLGMTKLLSILSYKECIHGIADITGVSVNPYTAYDGSLMNELIISFENKFSVPKSVSFHDNDIYLTIGTTKSYVRAEIFEGEMRHFYSDYKNYYYLPKEDMAIHKSVAAYVDHEYREKCKAYNCYVRKTGTFIRQYSDFMKPEFRFDIKDKYSYFLLTEDFINSKQMVLSYVKHITDHLFNL
MGSDKIHHHHHHMKTIEVLSLRKYFPIRKGFLVKKIVGYVKAVDDISFSVEKGKTFALVGESGCGKTTTAKTILRLTNPTAGRVVIDGDDTTYYFMKRRDAENYLETTYVDIFREMREKLSPDQIVDVLEDVDKKYAEIFFKEAKESEEKFYQILLDDIDEKRMKFRRKIQIVFQDPMSSLNPRMTVGDILTEPILFHGLAKTREEAVDMAKDLLKSVGLKEYHLERYPHQFSGGQRQRIAIARAISINPEIVILDEPTASLDVSVQAQVINLFLKLQEEKGFTYLFISHDLGLVRFISHEVGIMYLGRIVEMGNTDEIFDNPLHPYTQALLSAVPVPDPKVERTRKRIILRGGVPSPINRPTGCFFHPRCPYKMPVCEKEYPVMKEISPGHWVACHLHSS
MGSDKIHHHHHHMKTIQPIDWLQPKTEAEEIRFRSTGFRWGNKGTHTSRTIMLDELRALLNYSRPDATRDDYVSVIIEDNCLGKRTASTRKLSLQRLSELYALDPKVLLFQLMRYFWYADRSGQAILPLLLALARDPLLRATAASVLCMHPGEEFARQPMTDALNQAAGGRFNEGTLNKIVRNAASSWTQTGHLKGRSHKVRQSIAPTAITTAYALLLGYLTGTRGAKLFETPWAQALDTPPSTLMHLAMDARRLGFLDMSQSGGIVELGFSRLLPLDERR
MGSDKIHHHHHHMKTLGERSKERRKIINLTQLQLSKKVGVSSVTISQWESGDTSPKGENLYKLAQALQCSPDWLMFGDSKNTKKPESNAEWAGGFDLWDNDSPLGEDEVEIPFYMDVELSAGEGIAEGVEYKGPKLRFAKSSLKRQGVNTDHAACVKVNGNSMEPVLPHGSTVGVDTSATEIVDGKMYAINHDGMMRVKMLYKLPGGGLRLRSYNTDEWPDEHINNEQLKNIKVIGKVFWYSVLL
